Residue numbers refer to the chain shown, from its start. Names may count otherwise.
B1: F265A: recombinant mSir2α core domain mutant, residue changed to alanine (protein)
chain: MADEVALALQAAGSPSAAAAMEAASQPADEPLRKRPRRDGPGLGRSPGEPSAAVAPAAAGCEAASAAAPAALWREAAGAAASAEREAPATAVAGDGDNGSGLRREPRAADDFDDDEGEEEDEAAAAAAAAAIGYRDNLLLTDGLLTNGFHSCESDDDDRTSHASSSDWTPRPRIGPYTFVQQHLMIGTDPRTILKDLLPETIPPPELDDMTLWQIVINILSEPPKRKKRKDINTIEDAVKLLQECKKIIVLTGAGVSVSCGIPDARSRDGIYARLAVDFPDLPDPQAMFDIEYFRKDPRPFFKFAKEIYPGQFQPSLCHKFIALSDKEGKLLRNYTQNIDTLEQVAGIQRILQCHGSFATASCLICKYKVDCEAVRGDIFNQVVPRCPRCPADEPLAIMKPEIVFFGENLPEQFHRAMKYDKDEVDLLIVIGSSLKVRPVALIPSSIPHEVPQILINREPLPHLHFDVELLGDCDVIINELCHRLGGEYAKLCCNPVKLSEITEKPPRPQKELVHLSELPPTPLHISEDSSSPERTVPQDSSVIATLVDQATNNNVNDLEVSESSCVEEKPQEVQTSRNVENINVENPDFKAVGSSTADKNERTSVAETVRKCWPNRLAKEQISKRLEGNQYLFVPPNRYIFHGAEVYSDSEDDVLSSSSCGSNSDSGTCQSPSLEEPLEDESEIEEFYNGLEDDTERPECAGGSGFGADGGDQEVVNEAIATRQELTDVNYPSDKS
modifications: left off: small tags and cut ends
notes: recombinant mSir2α core domain mutant, residue changed to alanine
B2: T336A: recombinant mSir2α core domain mutant, residue changed to alanine (protein)
chain: B1 chain with A265F, T336A
modifications: left off: small tags and cut ends
notes: as for B1
B3: H355A: recombinant mSir2α core domain mutant, residue changed to alanine (protein)
chain: B1 chain with A265F, H355A
modifications: left off: small tags and cut ends
notes: as for B1
B4: G270A: recombinant mSir2α core domain mutant, residue changed to alanine (protein)
chain: B1 chain with A265F, G270A
modifications: left off: small tags and cut ends
notes: as for B1
B5: R266A: recombinant mSir2α core domain mutant, residue changed to alanine (protein)
chain: B1 chain with A265F, R266A
modifications: left off: small tags and cut ends
notes: as for B1

These molecules were tested on histone H2B (assay: ADP-ribosylation activity of wild type and mutant recombinant mSir2α proteins on histones). Conditions: 10 μg recombinant protein; H2B radioactivity, wild type = 100%.
Format: biochemical, calf
Experimental: Site-directed mutagenesis of mSIR2α core domain was performed with the GeneEditor™ system (Promega, Madison, Wis.) according to the procedure provided by the manufacturer. The mutant recombinant proteins were prepared in the same way as described above.
The typical reaction was performed in 50 or 100 μl of the buffer containing 5 mM Tris-HCl [pH8.0 or 9.0], 4 mM MgCl2, 0.2 mM DTT, 1 μM cold β-NAD^+ (SIGMA®) and 8 μCi nicotinamide adenine dinucleotide 5′[α-^32P]triphosphate (NAD) as a donor of ADP-ribose (˜1000 Ci/mmol, Amersham Pharmacia Biotech). To check the sensitivity to poly- or mono-ADP-ribosylation inhibitors, 3-aminobenzamide (ICN Pharmaceuticals, CA), benzamide, novobiocin and coumermycin A1 (SIGMA®) were added to the reactions prior to adding Sir2 proteins, respectively. The wild type or mutant recombinant proteins (0.5-1 μg for ySir2p and 10 μg of mSir2α) were added with 4 μg of each histone purchased from Roche Molecular Biochemicals (Indianapolis, Ind.). For the peptide experiments, 5-10 μg of unacetylated or acetylated N-terminal tail peptides (amino acids 1-20) of H3 and H4 purchased from Upstate Biotechnology™ (Lake Placid, N.Y.) were used as substrates of the yeast and mouse Sir2 recombinant proteins.
To analyze histone modification, 25 μl of 100% trichloroacetic acid (TCA) solution was mixed to the reaction mixture and left on ice for 15 min. The protein precipitates were centrifuged at 4° C. and washed with 5 or 20% TCA solution twice. The pellets were dissolved in 15 μl of Leammli's sample buffer and boiled for 1.5 min. The proteins were electrophoresed in a 10-20% gradient SDS-PAGE gel. The gel was stained with COOMASSIE® Brilliant Blue R-250 (GibcoBRL Life Technologies™, Frederick, Md.) to check equal loading of histones, dried, and exposed to KODAK® X-OMAT film.
Aliquots of recombinant protein (10 μg) of the wild type recombinant mSir2α (WT), the pET control pET, and the mutant proteins (G253A, G255A, S257A, I262A, F265A, R266A, G270A, P285A, T336A, H355A) were incubated with H2B or H3. […] All of the mutations of highly conserved residues dramatically affected the mono-ADP-ribosylation activity of mSir2α (FIG. 6B). The results were similar using H2B or H3.
The radioactivity of H2B modified by the wild type is assigned to 100% and other data were normalized according to the wild type activity and blots quantitated by Phosphorimaging. The averages and the standard deviations were calculated from two independent experiments. In the core domain of ySir2p, mutations on highly conserved residues also affected the mono-ADP-ribosylation activity. Therefore, the core domain of Sir2 proteins contain the catalytic activity of mono-ADP-ribosylation and the evolutionarily conserved residues in the core domain are essential for this activity.
B1 was tested, and the “mono-ADP-ribosylation activity compared to the wild type activity” value was “completely abolished the activity”.
With B2 the “mono-ADP-ribosylation activity compared to the wild type activity” value was “completely abolished the activity”.
With B3 the “mono-ADP-ribosylation activity compared to the wild type activity” value was “completely abolished the activity”.
B4 was tested, and the “mono-ADP-ribosylation activity compared to the wild type activity” value was “completely abolished the activity”.
B5 was tested, and the “mono-ADP-ribosylation activity compared to the wild type activity” value was 18%.

— patent US8642284B1, “Methods for identifying agents that alter NAD-dependent deacetylation activity of a SIR2 protein” (Massachusetts Institute of Technology, priority 1999, dated 2014)
